# B1: DVD445 (bispecific antibody, human IgG1, kappa)
# heavy: not shown
# light: DIVMTQSPDSLAVSLGERATISCRASESVDNYGISFMKWFQQKPGQPPKLLIYAASNQGSGVPDRFSGSGSGTDFTLTISSLQAEDVAVYYCQQSKEVPWTFGGGTKVEIKRTVAAPDIQMTQSPSSLSASVGDRVTITCRASQVIRRSLAWYQQKPGKAPKLLIYAASNLASGVPSRFSGSGSGTDFTLTISSLQPEDFATYYCQQSNTSPLTFGQGTKVEIKRTVAAPSVFIFPPSDEQLKSGTASVVCLLNNFYPREAKVQWKVDNALQSGNSQESVTEQDSKDSTYSLSSTLTLSKADYEKHKVYACEVTHQGLSSPVTKSFNRGEC
# notes: DVD-Ig; N-term; VD DLL4 (AB069), C-term; VD VEGF (AB071); HC linker short, LC linker short; also called DVD-Ig DVD445; DVD445H
# B2: DVD457 (bispecific antibody, human IgG1, kappa, L234A L235A)
# heavy: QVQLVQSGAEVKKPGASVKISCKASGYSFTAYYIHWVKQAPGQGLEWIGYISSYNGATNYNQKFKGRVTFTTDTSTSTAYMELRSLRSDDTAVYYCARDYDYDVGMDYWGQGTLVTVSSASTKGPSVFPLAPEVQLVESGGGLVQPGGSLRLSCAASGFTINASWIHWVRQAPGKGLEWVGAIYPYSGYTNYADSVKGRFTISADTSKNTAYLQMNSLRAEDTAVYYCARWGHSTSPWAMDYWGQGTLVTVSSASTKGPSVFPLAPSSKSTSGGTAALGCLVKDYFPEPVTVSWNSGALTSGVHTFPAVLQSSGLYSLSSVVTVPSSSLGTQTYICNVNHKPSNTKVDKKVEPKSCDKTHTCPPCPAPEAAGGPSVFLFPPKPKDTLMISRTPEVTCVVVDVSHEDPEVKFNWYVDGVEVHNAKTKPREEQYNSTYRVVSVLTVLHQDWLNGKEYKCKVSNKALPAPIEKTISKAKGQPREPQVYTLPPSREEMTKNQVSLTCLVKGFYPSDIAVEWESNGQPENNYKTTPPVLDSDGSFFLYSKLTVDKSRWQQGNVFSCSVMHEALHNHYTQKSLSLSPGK
# light: B1 light
# notes: DVD-Ig; N-term; VD DLL4 (AB069), C-term; VD VEGF (AB071); HC linker long, LC linker short; also called DVD-Ig DVD457; DVD457H
# B3: DVD515 (bispecific antibody, human IgG1, kappa)
# heavy: not shown
# light: QAVVTQESALTTSPGETVTLTCRSSTGAVTTSNYANWVQEKPDHLFTGLIGGTNNRAPGVPARFSGSLIGDKAALTITGAQTEDEAIYFCALWYSNHWVFGGGTKLTVLGQPKAAPDIQMTQSPSSLSASVGDRVTITCRASQVIRRSLAWYQQKPGKAPKLLIYAASNLASGVPSRFSGSGSGTDFTLTISSLQPEDFATYYCQQSNTSPLTFGQGTKVEIKRTVAAPSVFIFPPSDEQLKSGTASVVCLLNNFYPREAKVQWKVDNALQSGNSQESVTEQDSKDSTYSLSSTLTLSKADYEKHKVYACEVTHQGLSSPVTKSFNRGEC
# notes: DVD-Ig; N-term; VD DLL4 (AB073), C-term; VD VEGF (AB071); HC linker short, LC linker short; also called DVD-Ig DVD515; DVD515H
# B4: DVD527 (bispecific antibody, human IgG1, kappa)
# heavy: not shown
# light: B3 light
# notes: DVD-Ig; N-term; VD DLL4 (AB073), C-term; VD VEGF (AB071); HC linker long, LC linker short; also called DVD-Ig DVD527; DVD527H
# B5: DVD479 (bispecific antibody, human IgG1, kappa)
# heavy: not shown
# light: DIQMTQSPSSLSASVGDRVTITCRASQDVSTAVAWYQQKPGKAPKLLIYSASFLYSGVPSRFSGSGSGTDFTLTISSLQPEDFATTYYCQQSYTGTVTFGQGTKVEIKRTVAAPDIQMTQSPSSLSASVGDRVTITCRASQVIRRSLAWYQQKPGKAPKLLIYAASNLASGVPSRFSGSGSGTDFTLTISSLQPEDFATYYCQQSNTSPLTFGQGTKVEIKRTVAAPSVFIFPPSDEQLKSGTASVVCLLNNFYPREAKVQWKVDNALQSGNSQESVTEQDSKDSTYSLSSTLTLSKADYEKHKVYACEVTHQGLSSPVTKSFNRGEC
# notes: DVD-Ig; N-term; VD DLL4 (AB015), C-term; VD VEGF (AB071); HC linker long, LC linker short; also called DVD-Ig DVD479; DVD479H
# B6: DVD451 (bispecific antibody, human IgG1, kappa, L234A L235A)
# heavy: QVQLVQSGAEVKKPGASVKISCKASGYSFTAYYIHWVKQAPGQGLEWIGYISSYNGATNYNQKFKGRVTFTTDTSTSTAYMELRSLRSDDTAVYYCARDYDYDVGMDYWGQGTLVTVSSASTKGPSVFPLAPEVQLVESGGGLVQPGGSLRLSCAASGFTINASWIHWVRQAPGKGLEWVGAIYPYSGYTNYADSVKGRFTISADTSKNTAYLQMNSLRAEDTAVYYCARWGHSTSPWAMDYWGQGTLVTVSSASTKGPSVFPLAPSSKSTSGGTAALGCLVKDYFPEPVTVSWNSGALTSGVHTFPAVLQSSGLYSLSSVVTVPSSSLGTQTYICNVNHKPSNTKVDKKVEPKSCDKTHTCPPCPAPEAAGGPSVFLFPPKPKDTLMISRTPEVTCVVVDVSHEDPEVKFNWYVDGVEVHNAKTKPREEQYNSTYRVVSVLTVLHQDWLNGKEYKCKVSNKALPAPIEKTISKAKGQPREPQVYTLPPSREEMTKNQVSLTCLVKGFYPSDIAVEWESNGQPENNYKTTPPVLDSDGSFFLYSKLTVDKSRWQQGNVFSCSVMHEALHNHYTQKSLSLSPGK
# light: DIVMTQSPDSLAVSLGERATISCRASESVDNYGISFMKWFQQKPGQPPKLLIYAASNQGSGVPDRFSGSGSGTDFTLTISSLQAEDVAVYYCQQSKEVPWTFGGGTKVEIKRTVAAPSVFIFPPDIQMTQSPSSLSASVGDRVTITCRASQVIRRSLAWYQQKPGKAPKLLIYAASNLASGVPSRFSGSGSGTDFTLTISSLQPEDFATYYCQQSNTSPLTFGQGTKVEIKRTVAAPSVFIFPPSDEQLKSGTASVVCLLNNFYPREAKVQWKVDNALQSGNSQESVTEQDSKDSTYSLSSTLTLSKADYEKHKVYACEVTHQGLSSPVTKSFNRGEC
# notes: DVD-Ig; N-term; VD DLL4 (AB069), C-term; VD VEGF (AB071); HC linker long, LC linker long; also called DVD-Ig DVD451; DVD451H
# B7: DVD463 (bispecific antibody, human IgG1, kappa)
# heavy: not shown
# light: B6 light
# notes: DVD-Ig; N-term; VD DLL4 (AB069), C-term; VD VEGF (AB071); HC linker short, LC linker long; also called DVD-Ig DVD463; DVD463H
# B8: DVD521 (bispecific antibody, human IgG1, kappa, lambda, L234A L235A)
# heavy: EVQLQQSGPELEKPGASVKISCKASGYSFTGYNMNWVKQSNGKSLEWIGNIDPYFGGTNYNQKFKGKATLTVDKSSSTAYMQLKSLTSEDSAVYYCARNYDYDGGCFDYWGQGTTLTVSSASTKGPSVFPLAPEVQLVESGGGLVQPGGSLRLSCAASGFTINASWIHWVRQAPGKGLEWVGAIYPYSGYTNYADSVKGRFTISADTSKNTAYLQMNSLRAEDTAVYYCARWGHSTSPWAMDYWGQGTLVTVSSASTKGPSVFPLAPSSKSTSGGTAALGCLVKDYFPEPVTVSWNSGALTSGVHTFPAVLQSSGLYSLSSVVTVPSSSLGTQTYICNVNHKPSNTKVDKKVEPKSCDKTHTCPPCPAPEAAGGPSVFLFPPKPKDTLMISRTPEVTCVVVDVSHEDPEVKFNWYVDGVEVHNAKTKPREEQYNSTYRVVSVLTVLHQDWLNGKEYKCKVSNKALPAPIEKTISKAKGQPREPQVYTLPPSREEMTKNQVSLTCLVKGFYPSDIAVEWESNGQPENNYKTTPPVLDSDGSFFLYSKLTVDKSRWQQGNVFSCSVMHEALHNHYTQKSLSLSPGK
# light: QAVVTQESALTTSPGETVTLTCRSSTGAVTTSNYANWVQEKPDHLFTGLIGGTNNRAPGVPARFSGSLIGDKAALTITGAQTEDEAIYFCALWYSNHWVFGGGTKLTVLGQPKAAPSVTLFPPDIQMTQSPSSLSASVGDRVTITCRASQVIRRSLAWYQQKPGKAPKLLIYAASNLASGVPSRFSGSGSGTDFTLTISSLQPEDFATYYCQQSNTSPLTFGQGTKVEIKRTVAAPSVFIFPPSDEQLKSGTASVVCLLNNFYPREAKVQWKVDNALQSGNSQESVTEQDSKDSTYSLSSTLTLSKADYEKHKVYACEVTHQGLSSPVTKSFNRGEC
# notes: DVD-Ig; N-term; VD DLL4 (AB073), C-term; VD VEGF (AB071); HC linker long, LC linker long; also called DVD-Ig DVD521; DVD521H
# B9: DVD533 (bispecific antibody, human IgG1, kappa, lambda, L234A L235A)
# heavy: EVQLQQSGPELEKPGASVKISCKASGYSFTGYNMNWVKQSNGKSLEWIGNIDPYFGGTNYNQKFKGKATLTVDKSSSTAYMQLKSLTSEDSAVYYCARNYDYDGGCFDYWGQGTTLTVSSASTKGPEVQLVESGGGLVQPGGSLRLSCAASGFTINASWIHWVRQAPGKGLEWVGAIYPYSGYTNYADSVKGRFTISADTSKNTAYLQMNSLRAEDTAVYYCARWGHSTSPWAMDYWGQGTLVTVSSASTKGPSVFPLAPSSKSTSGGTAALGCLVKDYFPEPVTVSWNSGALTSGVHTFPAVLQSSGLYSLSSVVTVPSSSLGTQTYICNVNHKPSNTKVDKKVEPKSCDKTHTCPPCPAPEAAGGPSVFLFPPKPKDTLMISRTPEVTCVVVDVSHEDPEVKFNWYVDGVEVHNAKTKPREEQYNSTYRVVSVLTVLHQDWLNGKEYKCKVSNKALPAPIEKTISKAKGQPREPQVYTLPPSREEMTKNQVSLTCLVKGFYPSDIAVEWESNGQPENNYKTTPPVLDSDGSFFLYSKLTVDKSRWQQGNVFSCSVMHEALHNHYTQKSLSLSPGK
# light: B8 light
# notes: DVD-Ig; N-term; VD DLL4 (AB073), C-term; VD VEGF (AB071); HC linker short, LC linker long; also called DVD-Ig DVD533; DVD533H
# B10: DVD491 (bispecific antibody, human IgG1, kappa)
# heavy: not shown
# light: DIQMTQSSSYLSVSLGGRVTITCKASDHINNWLAWYQQKPGNAPRLLISGATSLETGVPSRFSGSGSGKDYTLSITSLQTEDVATYYCQQYWSIPLTFGAGTKLELKRTVAAPDIQMTQSPSSLSASVGDRVTITCRASQVIRRSLAWYQQKPGKAPKLLIYAASNLASGVPSRFSGSGSGTDFTLTISSLQPEDFATYYCQQSNTSPLTFGQGTKVEIKRTVAAPSVFIFPPSDEQLKSGTASVVCLLNNFYPREAKVQWKVDNALQSGNSQESVTEQDSKDSTYSLSSTLTLSKADYEKHKVYACEVTHQGLSSPVTKSFNRGEC
# notes: DVD-Ig; N-term; VD DLL4 (AB072), C-term; VD VEGF (AB071); HC linker short, LC linker short; also called DVD-Ig DVD491; DVD491H
# B11: DVD503 (bispecific antibody, human IgG1, kappa)
# heavy: not shown
# light: B10 light
# notes: DVD-Ig; N-term; VD DLL4 (AB072), C-term; VD VEGF (AB071); HC linker long, LC linker short; also called DVD-Ig DVD503; DVD503H
# B12: DVD497 (bispecific antibody, human IgG1, kappa)
# heavy: not shown
# light: DIQMTQSSSYLSVSLGGRVTITCKASDHINNWLAWYQQKPGNAPRLLISGATSLETGVPSRFSGSGSGKDYTLSITSLQTEDVATYYCQQYWSIPLTFGAGTKLELKRTVAAPSVFIFPPDIQMTQSPSSLSASVGDRVTITCRASQVIRRSLAWYQQKPGKAPKLLIYAASNLASGVPSRFSGSGSGTDFTLTISSLQPEDFATYYCQQSNTSPLTFGQGTKVEIKRTVAAPSVFIFPPSDEQLKSGTASVVCLLNNFYPREAKVQWKVDNALQSGNSQESVTEQDSKDSTYSLSSTLTLSKADYEKHKVYACEVTHQGLSSPVTKSFNRGEC
# notes: DVD-Ig; N-term; VD DLL4 (AB072), C-term; VD VEGF (AB071); HC linker long, LC linker long; also called DVD-Ig DVD497; DVD497H
# B13: DVD509 (bispecific antibody, human IgG1, kappa)
# heavy: not shown
# light: B12 light
# notes: DVD-Ig; N-term; VD DLL4 (AB072), C-term; VD VEGF (AB071); HC linker short, LC linker long; also called DVD-Ig DVD509; DVD509H
# B14: DVD485 (bispecific antibody, human IgG1, kappa)
# heavy: not shown
# light: DIQMTQSPSSLSASVGDRVTITCRASQDVSTAVAWYQQKPGKAPKLLIYSASFLYSGVPSRFSGSGSGTDFTLTISSLQPEDFATTYYCQQSYTGTVTFGQGTKVEIKRTVAAPSVFIFPPDIQMTQSPSSLSASVGDRVTITCRASQVIRRSLAWYQQKPGKAPKLLIYAASNLASGVPSRFSGSGSGTDFTLTISSLQPEDFATYYCQQSNTSPLTFGQGTKVEIKRTVAAPSVFIFPPSDEQLKSGTASVVCLLNNFYPREAKVQWKVDNALQSGNSQESVTEQDSKDSTYSLSSTLTLSKADYEKHKVYACEVTHQGLSSPVTKSFNRGEC
# notes: DVD-Ig; N-term; VD DLL4 (AB015), C-term; VD VEGF (AB071); HC linker short, LC linker long; also called DVD-Ig DVD485; DVD485H
# B15: DVD468 (bispecific antibody, human IgG1, kappa)
# heavy: not shown
# light: DIQMTQSPSSLSASVGDRVTITCRASQVIRRSLAWYQQKPGKAPKLLIYAASNLASGVPSRFSGSGSGTDFTLTISSLQPEDFATYYCQQSNTSPLTFGQGTKVEIKRTVAAPDIQMTQSPSSLSASVGDRVTITCRASQDVSTAVAWYQQKPGKAPKLLIYSASFLYSGVPSRFSGSGSGTDFTLTISSLQPEDFATTYYCQQSYTGTVTFGQGTKVEIKRTVAAPSVFIFPPSDEQLKSGTASVVCLLNNFYPREAKVQWKVDNALQSGNSQESVTEQDSKDSTYSLSSTLTLSKADYEKHKVYACEVTHQGLSSPVTKSFNRGEC
# notes: DVD-Ig; N-term; VD VEGF (AB071), C-term; VD DLL4 (AB015); HC linker short, LC linker short; also called DVD-Ig DVD468; DVD468H
# Target: T1, DLL4 (DLL ECD His tag, R&D 1506-D4-050) (UniProt Q9NR61 27-529)
# T1 construct: extracellular domain; bought
# Assay: BIACORE (SPR), DVD-Ig against DLL4
Kd [nM],koff [s⁻¹],kon [M⁻¹ s⁻¹],Binder
5.01,0.000646,129000,B1
4.82,0.000578,120000,B2
1.51,0.0016,1.06e+06,B3
1.9,0.00109,574000,B4
0.441,0.000174,395000,B5
14,0.001,71700,B6
3.82,0.000472,123000,B7
1.77,0.00168,947000,B8
2.22,0.00133,598000,B9
0.237,6.35e-05,267000,B10
0.192,4.72e-05,246000,B11
0.266,7.12e-05,268000,B12
0.153,3.52e-05,230000,B13
1.16,–,–,B14
3.76,0.000219,58200,B15
